A short description of the series: total protein half-life in vivo (active degradation + dilution); higher = more stable protein.
The mark [1] stands for this setting: E. coli NCM3722 delta-clpP delta-lon delta-hslV, growth: N-lim chemostat, doubling time 6 h.
Setting [2] is: E. coli NCM3722 delta-clpP, growth: N-lim chemostat, doubling time 6 h.
[3] abbreviates: E. coli NCM3722 delta-hslV, growth: N-lim chemostat, doubling time 6 h.
Where [4] appears, read: E. coli NCM3722 delta-smpB, growth: N-lim chemostat, doubling time 6 h.
[5] abbreviates: wild type E. coli NCM3722, growth: C-lim chemostat, doubling time 3 h.
Setting [6] is: wild type E. coli NCM3722, growth: C-lim chemostat, doubling time 6 h.
Where [7] appears, read: wild type E. coli NCM3722, growth: C-lim chemostat, doubling time 12 h.
Where [8] appears, read: wild type E. coli NCM3722, growth: N-lim chemostat, doubling time 6 h.
The mark [9] stands for this setting: wild type E. coli NCM3722, growth: N-lim chemostat, doubling time 12 h.
Where [10] appears, read: wild type E. coli NCM3722, growth: P-lim chemostat, doubling time 6 h.
Setting [11] is: wild type E. coli NCM3722, growth: P-lim chemostat, doubling time 12 h.
Setting [12] is: E. coli NCM3722 delta-lon, growth: N-lim chemostat, doubling time 6 h.

± gives the standard deviation of the averaged measurements.

For “MAKAPKRAFVCNECGADYPRWQGQCSACHAWNTITEVRLAASPMVARNERLSGYAGSAGVAKVQKLSDISLEELPRFSTGFKEFDRVLGGGVVPGSAILIGGNPGAGKSTLLLQTLCKLAQQMKTLYVTGEESLQQVAMRAHRLGLPTDNLNMLSETSIEQICLIAEEEQPKLMVIDSIQVMHMADVQSSPGSVAQVRETAAYLTRFAKTRGVAIVMVGHVTKDGSLAGPKVLEHCIDCSVLLDGDADSRFRTLRSHKNRFGAVNELGVFAMTEQGLREVSNPSAIFLSRGDEVTSGSSVMVVWEGTRPLLVEIQALVDHSMMANPRRVAVGLEQNRLAILLAVLHRHGGLQMADQDVFVNVVGGVKVTETSADLALLLAMVSSLRDRPLPQDLVVFGEVGLAGEIRPVPSGQERISEAAKHGFRRAIVPAANVPKKAPEGMQIFGVKKLSDALSVFDDL”, the “total protein half-life in vivo” value runs as follows: under setting [1], 4.95 ± 0.18 h; under setting [2], 4.7 ± 0.74 h; under setting [3], 4.63 ± 1.1 h; under setting [4], 3.88 ± 0.27 h; under setting [5], 2.88 ± 0.043 h; under setting [6], 4.894 ± 0.039 h. For the same sequence, the “total protein half-life in vivo” value runs as follows: under setting [7], 8.52 ± 1.8 h; under setting [8], 3.65 ± 0.14 h; under setting [9], 5.76 ± 0.49 h; under setting [10], 5.64 ± 0.66 h; under setting [11], 10.2 ± 0.85 h.
As to “MNNREKEILAILRRNPLIQQNEIADMLQISRSRVAAHIMDLMRKGRIKGKGYILTEQEYCVVVGTINMDIRGMADIRYPQSASHPGTIHCSAGGVGRNIAHNLALLGRDVHLLSVIGDDFYGEMLLEETRRAGVNVSGCVRLHGQSTSTYLAIANRDDQTVLAINDTHLLEQLTPQLLNGSRDLLRHAGVVLADCNLTAEALEWVFTLADEIPVFVDTVSEFKAGKIKHWLAHIHTLKPTLPELEILWGQAITSDADRNTAVNALHQQGVQQLFVYLPDESVYCSEKDGEQFLLTAPAHTTVDSFGADDGFMAGLVYSFLEGYSFRDSARFAVACAAISRASGSLNNPTLSADNALSLVPMV”, under setting [1], the “total protein half-life in vivo” value stood at 5.83 ± 0.3 h.
Turning to “MTVTRPRAERGAFPPGTEHYGRSLLGAPLIWFPAPAASRESGLILAGTHGDENSSVVTLSCALRTLTPSLRRHHVVLCVNPDGCQLGLRANANGVDLNRNFPAANWKEGETVYRWNSAAEERDVVLLTGDKPGSEPETQALCQLIHRIQPAWVVSFHDPLACIEDPRHSELGEWLAQAFELPLVTSVGYETPGSFGSWCADLNLHCITAEFPPISSDEASEKYLFAMANLLRWHPKDAIRPS [P0ACV6]”, the “total protein half-life in vivo” value runs as follows: under setting [1], 4.35 ± 0.052 h; under setting [2], 4.17 ± 0.28 h; under setting [3], 3.78 ± 0.16 h; under setting [12], 4.19 ± 0.46 h; under setting [4], 3.94 ± 0.21 h; under setting [5], 3.03 ± 0.27 h. Also, the “total protein half-life in vivo” value by setting is: under setting [6], 4.71 ± 0.84 h; under setting [7], 9.23 ± 0.26 h; under setting [8], 3.66 ± 0.29 h; under setting [9], 6.85 ± 0.2 h; under setting [10], 4.71 ± 0.42 h; under setting [11], 10.7 ± 0.85 h.
In the case of “MKKKTTLSEEDQALFRQLMAGTRKIKQDTIVHRPQRKKISEVPVKRLIQEQADASHYFSDEFQPLLNTEGPVKYVRPDVSHFEAKKLRRGDYSPELFLDLHGLTQLQAKQELGALIAACRREHVFCACVMHGHGKHILKQQTPLWLAQHPHVMAFHQAPKEYGGDAALLVLIEVEEWLPPELP [P0A8B2]”, the “total protein half-life in vivo” value by setting is: under setting [1], 3.99 ± 0.33 h; under setting [2], 2.898 ± 0.019 h; under setting [3], 3.03 ± 0.56 h; under setting [4], 3.68 ± 0.36 h; under setting [5], 2.46 ± 0.48 h; under setting [6], 3.84 ± 0.16 h. Further, the “total protein half-life in vivo” value worked out at 5.34 h under setting [7]; 2.99 ± 0.086 h under setting [8]; 3.87 ± 0.36 h under setting [9]; 3.06 ± 0.1 h under setting [10]; 6 ± 0.6 h under setting [11].
On to “MKFIGKLLLYILIALLVAIAGLYFLLQTRWGAEHISAWVSENSDYHLAFGAMDHRFSAPSHIVLENVTFGRDGQPATLVAKSVDIALSSRQLTEPRHVDTILLENGTLNLTDQTAPLPFKADRLQLRDMAFNSPNSEWKLSAQRVNGGVVPWSPKAGKVLGTKAQIQFSAGSLSLNDVPATNVLIEGSIDNDRVTLTNLGADIARGTLTGNAQRNADGSWQVENLRMADIRLQSEKSLTDFFAPLRSVPSLQIGRLEVIDARLQGPDWAVTDLDLSLRNMTFSKDDWQTQEGKLSMNASEFIYGSLHLFDPIINTEFSPQGVALRQFTSRWEGGMVRTSGNWLRDGKTLILDDAAIAGLEYTLPKNWQQLWMETTPGWLNSLQLKRFSASRNLIIDIDPDFPWQLTALDGYGANLTLVTDHKWGVWSGSANLNAAAATFNRVDVRRPSLALTANSSTVNISELSAFTEKGILEATASVSQTPQRQTHISLNGRGVPVNILQQWGWPELPLTGDGNIQLTASGDIQANVPLKPTVSGQLHAVNAAKQQVTQTMNAGIVSSGEVTSTEPVR”, for which the “total protein half-life in vivo” value amounted to 6.81 ± 0.67 h under setting [1]; 6.85 ± 0.84 h under setting [2]; 6.19 ± 0.067 h under setting [3]; 6.3 ± 0.072 h under setting [12]; 6.28 ± 0.42 h under setting [4]; 3.2 ± 0.15 h under setting [5]. In addition, the “total protein half-life in vivo” value came out at 5.9 ± 0.12 h under setting [6]; 11.4 ± 1 h under setting [7]; 6.16 ± 0.12 h under setting [8]; 12.6 ± 0.84 h under setting [9]; 6.26 ± 0.23 h under setting [10]; 12 ± 0.2 h under setting [11].
For the sequence “MSEFDAQRVAERIDIVLDILVAGDYHSAIHNLEILKAELLRQVAESTPDIPKAPWEI [A5A614]”, the “total protein half-life in vivo” value runs as follows: under setting [1], > 8 h; under setting [4], 2.71 h; under setting [6], 3.77 ± 0.23 h; under setting [10], 3.58 h.
With “MGRILLDLSNEVIKQLDDLEVQRNLPRADLLREAVDQYLINQSQTARTSVPGIWQGCEEDGVEYQRKLREEW [P0AFU6]”, under setting [2], the “total protein half-life in vivo” value is 6.89 h.
On to “MLIFEGKEIETDTEGYLKESSQWSEPLAVVIAENEGISLSPEHWEVVRFVRDFYLEFNTSPAIRMLVKAMANKFGEEKGNSRYLYRLFPKGPAKQATKIAGLPKPVKCI [P0AB18]”, for which the “total protein half-life in vivo” value runs as follows: under setting [1], 4.6 ± 0.063 h; under setting [2], 3.82 ± 0.21 h; under setting [3], 4.08 ± 0.12 h; under setting [12], 6.01 ± 1.2 h; under setting [4], 4.08 ± 0.076 h; under setting [5], 2.84 ± 0.18 h. The “total protein half-life in vivo” value under setting [6] turned out to be 5.35 ± 0.47 h; the “total protein half-life in vivo” value under setting [7] worked out at 12.8 ± 2.9 h; the “total protein half-life in vivo” value under setting [8] is 3.49 ± 0.44 h; the “total protein half-life in vivo” value under setting [9] was found to be 6.82 ± 0.45 h; the “total protein half-life in vivo” value under setting [10] is 4.73 ± 0.007 h; the “total protein half-life in vivo” value under setting [11] came to 10.19 ± 0.053 h.
As for “MAKTAAALHILVKEEKLALDLLEQIKNGADFGKLAKKHSICPSGKRGGDLGEFRQGQMVPAFDKVVFSCPVLEPTGPLHTQFGYHIIKVLYRN [P0A9L5]”, the “total protein half-life in vivo” value was found to be 6.6 ± 0.64 h under setting [1]; 4.65 ± 1.5 h under setting [2]; 4.743 ± 0.043 h under setting [3]; 6.25 ± 0.67 h under setting [12]; 6.01 ± 0.7 h under setting [4]; 3.05 ± 0.21 h under setting [5]. Further, the “total protein half-life in vivo” value by setting is: under setting [6], 5.57 ± 0.14 h; under setting [7], 9.11 ± 0.34 h; under setting [8], 4.22 ± 0.34 h; under setting [9], 7.37 ± 0.48 h; under setting [10], 4.54 ± 1.2 h; under setting [11], 10.6 ± 0.12 h.
